The results in this text go back to article PMC11783452 (iScience, 2024).

This assay has as its target prefusion-stabilized MERS-CoV spike protein, MERS S-2P (MERS-CoV, England1 (isolate United …, UniProt K9N5Q8, stabilised)). The assay is described as follows: negative-stain EM.

B1: Anti-MERS-CoV S antibody CDC2-A2, Fab (Fab, V domains shown)
VH: QVQLVESGGGLVKPGGSLRLSCAASGFTFSDYYMSWIRQAPGKGLEWVSYISSSGSTIYYADSVKGRFTISRDNAKNSLYLQMNSLRAEDTAVYYCARVGLGSGWYDWFDPWGQGTLVTVSS
VL: QSALTQPPSVSGAPGQRVTISCTGSSSNIGASYDVHWYQHLPGTAPKLLIYGNTNRPSGVPDRFSGSKSGTSASLAITGLQAEDEADYYCQSYDSSLSGVVFSGGTKLTVL
B1: the binding result is on record as “binds”.
